This is an account of results in patent US20130302329A1, “DIAGNOSTIC TESTS FOR IMMUNE REACTIVITY WITH HUMAN ENDOTHELIAL CELL GROWTH FACTOR” (TRUSTEES OF BOSTON UNIVERSITY, priority 2010, published 2013).

The subject of assay [1] is PBMC. Description: Retest of peptides with the patient's own PBMC: IFN-γ secretion. As to conditions: PBMC of patient LA1, second assay. In kind it is cell-based, human. The text has this:
Only two peptide sets (set 33 and set 40) induced proliferation responses that were >2 times background (FIG. 2). Enough cells remained for retesting the first set together and the second peptide set individually. In the second assay, only one peptide induced proliferation and IFN-γ secretion that were >2 times background. This peptide (^340LGRFERMLAAQGGVDPG^355) (SEQ ID NO:1), 1 of the 16 identified by only one of the three search programs, originated from the source protein platelet-derived endothelial cell growth factor (ECGF), also called thymidine phosphorylase or gliostatin.

The subject of assay [2] is PBMC. Description: Testing of subjects' PBMC with commercially available recombinant ECGF. In kind it is cell-based, human. Here is the method: Initially, subjects' PBMC were tested using commercially available recombinant ECGF. […] Consequently, three HLA-DR T-cell epitope prediction algorithms (Wang et al., PLoS Computat. Biol. e1000048 (2008)), were used to identify seven ECGF peptides, including the one peptide identified in the initial patients' sample (ECGF340-365), that were predicted to be presented by the HLA-DR molecules associated with antibiotic-refractory Lyme arthritis. These peptides were synthesized and tested for autoreactivity via IFN-γ ELISPOT assays using patient and control PBMC (FIG. 3). Based upon the values obtained in 14 healthy control subjects (FIG. 3), a positive T cell response was defined as a stimulation index (no. of spots induced by an ECGF peptide /no. of spots in no antigen controls) 3 standard deviation (SD) above the mean of healthy controls, which characteristically gave >40 spot forming units (SFU)/10^6 PBMC and a stimulation index of >8.

Take “LGRFERMLAAQGVDPG (listed as Homo sapiens) [SEQ ID NO:1, ECGF peptide (index case), HLA-DR-presented, identified in LA1 synovial sample]”: the “IFN-γ secretion relative to background” value in assay [1] is above 2 times background.

B1: ECGF: commercially available recombinant human platelet-derived endothelial cell growth factor, also called thymidine phosphorylase or gliostatin (protein, UniProt P19971 11-482, looked up)
Thymidine phosphorylase: APPAPGDFSGEGSQGLPDPSPEPKQLPELIRMKRDGGRLSEADIRGFVAAVVNGSAQGAQIGAMLMAIRLRGMDLEETSVLTQALAQSGQQLEWPEAWRQQLVDKHSTGGVGDKVSLVLAPALAACGCKVPMISGRGLGHTGGTLDKLESIPGFNVIQSPEQMQVLLDQAGCCIVGQSEQLVPADGILYAARDVTATVDSLPLITASILSKKLVEGLSALVVDVKFGGAAVFPNQEQARELAKTLVGVGASLGLRVAAALTAMDKPLGRCVGHALEVEEALLCMDGAGPPDLRDLVTTLGGALLWLSGHAGTQAQGAARVAAALDDGSALGRFERMLAAQGVDPGLARALCSGSPAERRQLLPRAREQEELLAPADGTVELVRALPLALVLHELGAGRSRAGEPLRLGVGAELLVDVGQRLRRGTPWLRVHRDGPALSGPQSRALQEALVLSDRAPFAAPSPFAELVLPPQQ
With B1, in assay [2] (actively dividing cells), the “effect on thymidine incorporation” value is listed as “inhibited thymidine incorporation into actively dividing cells”. Further, the “IFN-γ secretion by PBMC” value in assay [2] (subjects' PBMC) was “non-specifically induced PBMC to secrete IFN-γ”.
